We go through six molecules from patent US20190185537A1 (AstraZeneca / MedImmune, published 2019).

T1: human glucose-dependent insulinotropic peptide (gastric inhibitory polypeptide) receptor (human) (UniProt P48546)
T1 sequence (looked up): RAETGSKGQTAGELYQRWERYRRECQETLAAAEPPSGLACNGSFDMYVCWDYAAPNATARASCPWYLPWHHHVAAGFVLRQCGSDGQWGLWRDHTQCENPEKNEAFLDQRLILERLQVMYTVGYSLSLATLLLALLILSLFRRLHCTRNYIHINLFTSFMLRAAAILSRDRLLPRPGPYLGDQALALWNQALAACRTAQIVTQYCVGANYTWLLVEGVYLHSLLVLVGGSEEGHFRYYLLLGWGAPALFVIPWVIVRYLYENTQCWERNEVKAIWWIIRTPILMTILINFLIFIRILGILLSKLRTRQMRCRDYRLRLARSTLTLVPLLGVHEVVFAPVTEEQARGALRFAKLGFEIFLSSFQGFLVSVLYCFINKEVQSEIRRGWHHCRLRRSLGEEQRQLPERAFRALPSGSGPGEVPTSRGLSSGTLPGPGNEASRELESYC

B1: g614 (peptide)
peptide: HSQGTFTSDYSEYLDSK([Ahx-Palmitoyl])RAQDFVQWLERGG-NH2
modifications: N-terminus assumed
SMILES: CCCCCCCCCCCCCCCC(=O)NCCCCCC(=O)NCCCC[C@H](NC(=O)[C@H](CO)NC(=O)[C@H](CC(=O)O)NC(=O)[C@H](CC(C)C)NC(=O)[C@H](Cc1ccc(O)cc1)NC(=O)[C@H](CCC(=O)O)NC(=O)[C@H](CO)NC(=O)[C@H](Cc1ccc(O)cc1)NC(=O)[C@H](CC(=O)O)NC(=O)[C@H](CO)NC(=O)[C@@H](NC(=O)[C@H](Cc1ccccc1)NC(=O)[C@@H](NC(=O)CNC(=O)[C@H](CCC(N)=O)NC(=O)[C@H](CO)NC(=O)[C@@H](N)Cc1c[nH]cn1)[C@@H](C)O)[C@@H](C)O)C(=O)N[C@@H](CCCNC(=N)N)C(=O)N[C@@H](C)C(=O)N[C@@H](CCC(N)=O)C(=O)N[C@@H](CC(=O)O)C(=O)N[C@@H](Cc1ccccc1)C(=O)N[C@H](C(=O)N[C@@H](CCC(N)=O)C(=O)N[C@@H](Cc1c[nH]c2ccccc12)C(=O)N[C@@H](CC(C)C)C(=O)N[C@@H](CCC(=O)O)C(=O)N[C@@H](CCCNC(=N)N)C(=O)NCC(=O)NCC(N)=O)C(C)C
B2: g783 (peptide)
peptide: HSQGTFTSDYSEYLDSK([βAla-Palmitoyl])RARDFVAWLEAGG-NH2
modifications: N-terminus assumed
SMILES: CCCCCCCCCCCCCCCC(=O)NCCC(=O)NCCCC[C@H](NC(=O)[C@H](CO)NC(=O)[C@H](CC(=O)O)NC(=O)[C@H](CC(C)C)NC(=O)[C@H](Cc1ccc(O)cc1)NC(=O)[C@H](CCC(=O)O)NC(=O)[C@H](CO)NC(=O)[C@H](Cc1ccc(O)cc1)NC(=O)[C@H](CC(=O)O)NC(=O)[C@H](CO)NC(=O)[C@@H](NC(=O)[C@H](Cc1ccccc1)NC(=O)[C@@H](NC(=O)CNC(=O)[C@H](CCC(N)=O)NC(=O)[C@H](CO)NC(=O)[C@@H](N)Cc1c[nH]cn1)[C@@H](C)O)[C@@H](C)O)C(=O)N[C@@H](CCCNC(=N)N)C(=O)N[C@@H](C)C(=O)N[C@@H](CCCNC(=N)N)C(=O)N[C@@H](CC(=O)O)C(=O)N[C@@H](Cc1ccccc1)C(=O)N[C@H](C(=O)N[C@@H](C)C(=O)N[C@@H](Cc1c[nH]c2ccccc12)C(=O)N[C@@H](CC(C)C)C(=O)N[C@@H](CCC(=O)O)C(=O)N[C@@H](C)C(=O)NCC(=O)NCC(N)=O)C(C)C
B3: g825 (peptide)
peptide: HSQGTFTSDYSEYLDSK([Ahx-Palmitoyl])RARDFVEWLENT-NH2
modifications: not fully specified
B4: g819 (peptide)
peptide: HSQGTFTSDYSKYLDSK([βAla-Palmitoyl])RARDFVAWLEAGG-NH2
modifications: N-terminus assumed
SMILES: CCCCCCCCCCCCCCCC(=O)NCCC(=O)NCCCC[C@H](NC(=O)[C@H](CO)NC(=O)[C@H](CC(=O)O)NC(=O)[C@H](CC(C)C)NC(=O)[C@H](Cc1ccc(O)cc1)NC(=O)[C@H](CCCCN)NC(=O)[C@H](CO)NC(=O)[C@H](Cc1ccc(O)cc1)NC(=O)[C@H](CC(=O)O)NC(=O)[C@H](CO)NC(=O)[C@@H](NC(=O)[C@H](Cc1ccccc1)NC(=O)[C@@H](NC(=O)CNC(=O)[C@H](CCC(N)=O)NC(=O)[C@H](CO)NC(=O)[C@@H](N)Cc1c[nH]cn1)[C@@H](C)O)[C@@H](C)O)C(=O)N[C@@H](CCCNC(=N)N)C(=O)N[C@@H](C)C(=O)N[C@@H](CCCNC(=N)N)C(=O)N[C@@H](CC(=O)O)C(=O)N[C@@H](Cc1ccccc1)C(=O)N[C@H](C(=O)N[C@@H](C)C(=O)N[C@@H](Cc1c[nH]c2ccccc12)C(=O)N[C@@H](CC(C)C)C(=O)N[C@@H](CCC(=O)O)C(=O)N[C@@H](C)C(=O)NCC(=O)NCC(N)=O)C(C)C
B5: g684 (peptide)
peptide: HGQGTFTSDYSEYLDSK([Ahx-Palmitoyl])RARDFVAWLERGG-NH2
modifications: N-terminus assumed
SMILES: CCCCCCCCCCCCCCCC(=O)NCCCCCC(=O)NCCCC[C@H](NC(=O)[C@H](CO)NC(=O)[C@H](CC(=O)O)NC(=O)[C@H](CC(C)C)NC(=O)[C@H](Cc1ccc(O)cc1)NC(=O)[C@H](CCC(=O)O)NC(=O)[C@H](CO)NC(=O)[C@H](Cc1ccc(O)cc1)NC(=O)[C@H](CC(=O)O)NC(=O)[C@H](CO)NC(=O)[C@@H](NC(=O)[C@H](Cc1ccccc1)NC(=O)[C@@H](NC(=O)CNC(=O)[C@H](CCC(N)=O)NC(=O)CNC(=O)[C@@H](N)Cc1c[nH]cn1)[C@@H](C)O)[C@@H](C)O)C(=O)N[C@@H](CCCNC(=N)N)C(=O)N[C@@H](C)C(=O)N[C@@H](CCCNC(=N)N)C(=O)N[C@@H](CC(=O)O)C(=O)N[C@@H](Cc1ccccc1)C(=O)N[C@H](C(=O)N[C@@H](C)C(=O)N[C@@H](Cc1c[nH]c2ccccc12)C(=O)N[C@@H](CC(C)C)C(=O)N[C@@H](CCC(=O)O)C(=O)N[C@@H](CCCNC(=N)N)C(=O)NCC(=O)NCC(N)=O)C(C)C
B6: g588 (peptide)
peptide: HGQGTFTSDYSKYLDSK([γGlu-Palmitoyl])RAQDFVQWLERGG-NH2
modifications: N-terminus assumed
SMILES: CCCCCCCCCCCCCCCC(=O)N[C@@H](CCC(=O)NCCCC[C@H](NC(=O)[C@H](CO)NC(=O)[C@H](CC(=O)O)NC(=O)[C@H](CC(C)C)NC(=O)[C@H](Cc1ccc(O)cc1)NC(=O)[C@H](CCCCN)NC(=O)[C@H](CO)NC(=O)[C@H](Cc1ccc(O)cc1)NC(=O)[C@H](CC(=O)O)NC(=O)[C@H](CO)NC(=O)[C@@H](NC(=O)[C@H](Cc1ccccc1)NC(=O)[C@@H](NC(=O)CNC(=O)[C@H](CCC(N)=O)NC(=O)CNC(=O)[C@@H](N)Cc1c[nH]cn1)[C@@H](C)O)[C@@H](C)O)C(=O)N[C@@H](CCCNC(=N)N)C(=O)N[C@@H](C)C(=O)N[C@@H](CCC(N)=O)C(=O)N[C@@H](CC(=O)O)C(=O)N[C@@H](Cc1ccccc1)C(=O)N[C@H](C(=O)N[C@@H](CCC(N)=O)C(=O)N[C@@H](Cc1c[nH]c2ccccc12)C(=O)N[C@@H](CC(C)C)C(=O)N[C@@H](CCC(=O)O)C(=O)N[C@@H](CCCNC(=N)N)C(=O)NCC(=O)NCC(N)=O)C(C)C)C(=O)O

Numbered stars: 1 amine (or outer) side, 2 acyl side, 3 side chain; on linkers, the order of the positions; unused ones are H or OH. Side chains are listed from the residue outwards. Ends that are not written are not given here. * marks the point of attachment. γGlu = O=C(O)[C@H](CCC(=O)[*:2])N[*:1]; Palmitoyl = CCCCCCCCCCCCCCCC(=O)*; Ahx = NCCCCCC(=O)O; βAla = NCCC(=O)O

Sequence of human glucagon receptor (P47871 26-477): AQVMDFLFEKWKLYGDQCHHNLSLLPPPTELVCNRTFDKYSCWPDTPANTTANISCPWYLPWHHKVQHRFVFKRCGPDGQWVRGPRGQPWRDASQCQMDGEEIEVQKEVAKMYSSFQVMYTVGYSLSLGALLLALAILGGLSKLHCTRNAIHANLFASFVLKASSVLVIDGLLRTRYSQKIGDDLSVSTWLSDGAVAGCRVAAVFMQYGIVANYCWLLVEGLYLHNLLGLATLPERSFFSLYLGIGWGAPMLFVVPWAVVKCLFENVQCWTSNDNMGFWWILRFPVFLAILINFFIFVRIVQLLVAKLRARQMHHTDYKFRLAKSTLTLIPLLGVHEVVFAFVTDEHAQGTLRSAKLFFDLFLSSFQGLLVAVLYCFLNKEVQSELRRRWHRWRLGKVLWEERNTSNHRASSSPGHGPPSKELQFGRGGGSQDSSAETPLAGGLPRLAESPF
Sequence of human GLP-1 receptor (P43220 24-463): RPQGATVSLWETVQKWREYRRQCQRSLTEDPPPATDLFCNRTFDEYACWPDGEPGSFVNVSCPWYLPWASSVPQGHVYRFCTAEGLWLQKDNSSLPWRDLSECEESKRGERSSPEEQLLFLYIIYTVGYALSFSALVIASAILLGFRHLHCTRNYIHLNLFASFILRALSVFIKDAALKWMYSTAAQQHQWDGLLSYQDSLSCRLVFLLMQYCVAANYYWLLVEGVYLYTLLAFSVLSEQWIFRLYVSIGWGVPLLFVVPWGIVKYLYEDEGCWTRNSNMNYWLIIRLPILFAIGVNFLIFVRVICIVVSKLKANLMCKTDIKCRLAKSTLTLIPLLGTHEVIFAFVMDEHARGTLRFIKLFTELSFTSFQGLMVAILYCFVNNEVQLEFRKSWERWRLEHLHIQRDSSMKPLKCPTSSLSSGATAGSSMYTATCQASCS

In one test the target is T1, human glucose-dependent insulinotropic peptide (gastric inhibitory polypeptide) receptor (human). The test is described as follows: cell-based or functional assay.
In the case of B1, the cAMP EC50 (assay 1) was 99.3 nM.
Still for that read-out and setting: the result for B2 reads 846 nM.
The molecule B3 displayed a cAMP EC50 (assay 1) of 86.7 nM.
Turning to B4, the cAMP EC50 (assay 1) worked out at 103 nM.
For the molecule B5, the cAMP EC50 (assay 1) worked out at 146 nM.
As for B6, the cAMP EC50 (assay 1) came out at 98 nM.

Another test has as its target human GLP-1 receptor (human, UniProt P43220 24-463). The test is described as follows: cell-based or functional assay.
The molecule B1 returned a cAMP EC50 (assay 1) of 0.00931 nM.
On to B2, for which the cAMP EC50 (assay 1) was determined as 0.0424 nM.
B3 displayed a cAMP EC50 (assay 1) of 0.0191 nM.
On to B4, for which the cAMP EC50 (assay 1) stood at 0.018 nM.
The molecule B5 came in with a cAMP EC50 (assay 1) of 0.0151 nM.
The molecule B6 had a cAMP EC50 (assay 1) of 0.11 nM.

Another test addresses human glucagon receptor (human, UniProt P47871 26-477). The test is described as follows: cell-based or functional assay.
Consider B1, for which the cAMP EC50 (assay 1) was found to be 0.00365 nM.
The molecule B2 registered a cAMP EC50 (assay 1) of 0.0911 nM.
Molecule B3 returned a cAMP EC50 (assay 1) of 0.00367 nM.
The molecule B4 returned a cAMP EC50 (assay 1) of 0.00234 nM.
The same measure, in the same setting: for B5 the value was 0.164 nM; for B6, 0.0723 nM.
